This is an account of results in patent publication US20240209088A1.

Assay [1] has as its target full-length human CD4 on cells (human) (UniProt P01730). Briefly: flow cytometry of human PBMCs, donor 1, labeled Nb with anti-CD3-FITC.
The target is the same in assay [2]. Described as above. The source holds these as a separate data set.
For assay [3] the target is unchanged. Description: flow cytometry of human PBMCs, donor 2, labeled Nb with anti-CD3-FITC.
Assay [4] has the same target. Briefly: flow cytometry of human PBMCs, donor 3, labeled Nb with anti-CD3-FITC.
Assay [5] has the same target. Briefly: flow cytometry of human PBMCs, donor 1, labeled Nb with anti-CD3-FITC; the same panel in Fig. 8A prints 0.62.
For assay [6] the target is unchanged. Description: flow cytometry of human PBMCs, donor 1, labeled Nb with anti-CD3-FITC; the same panel in Fig. 3A prints 0,82.
The target is the same in assay [7]. Briefly: flow cytometry of human PBMCs, donor 1, with anti-CD3-FITC; c (nM) ~1.
Assay [8] shares this target. Description: flow cytometry of human PBMCs, donor 2, with anti-CD3-FITC; c (nM) ~1.
The target is the same in assay [9]. Description: flow cytometry of human PBMCs, donor 3, with anti-CD3-FITC; c (nM) ~1.
The target is the same in assay [10]. Briefly: flow cytometry of human PBMCs, donor 1, labeled anti-CD4 antibody with anti-CD3-FITC.
Assay [11] has the same target. Briefly: flow cytometry of human PBMCs, donor 2, labeled anti-CD4 antibody with anti-CD3-FITC.
Assay [12] has the same target. Briefly: flow cytometry of human PBMCs, donor 3, labeled anti-CD4 antibody with anti-CD3-FITC.

Where “and” joins values, the source holds several entries; their conditions need not be identical. Equal values may be shown once.

As for “non-specific fluorescently labeled GFP-binding Nb (VHH)”, the percent of cells in the CD3+ CD4+ quadrant is 1.39% in assay [1]; 0.13% in assay [2]; 0.03% and 0.26% in assay [3]; 0.03% and 0.95% in [4]. Moreover, the percent of cells in the CD3- CD4+ quadrant in assay [3] was 0.14% and 0.36%; in [4], 0.16% and 1.36%; in assay [5] it was 0.82%; in assay [6], 0.62%.
On to anti-human CD4 antibody RPA-T4, for which the Frequency CD3+ CD4+ (%) in assay [7] was 32.7%; in [8], 26.2%; in assay [9], 22.8%. For the same substance, the percent of cells in the CD3+ CD4+ quadrant in assay [10] came out at 33.7%; in [11], 27%; in assay [12] it was 24.3%. Besides, the percent of cells in the CD3- CD4+ quadrant worked out at 21.7% in [10], 22.4% in assay [11] and 43.4% in assay [12].
